According to publication PMC7504508 (International Journal of Molecular Sciences, 2020):

Target: calmodulin (UniProt P0DP23 1-149)
Assay: SPR; GST-Sumo-Cx35 fusion proteins captured by immobilised anti-GST antibodies on a CM5 chip (Biacore 2000); calmodulin as analyte, 3 nM to 30 µM; GST-Sumo reference flowcell subtracted; 1 mM free Ca2+, 0.5 mM free Mg2+, 140 mM KCl, 10 mM MOPS pH 7.2, 0.05% Tween 20; first order ligand binding model
Conditions: both partners purified

B1: GST-Sumo fusion protein of the perch Connexin 35 intracellular loop (amino acids 101-192) (domain or fragment)
chain: SAKQKERRYSTVYLTLDKDQDSLKRDESKKIKNTIVNGVLQNTENSTKEAEPDCLEVKEIPNSAMRTTKSKMRRQEGISRFYIIQVVFRNAL
- Kd: 6.29 µM
